# Laboratory results reported in the nanobody polyreactivity screen of Harvey et al. (2022).
# Assay: yeast display, Sf9 membrane polyspecificity reagent, FACS + sequencing; frameworks hold sequencing errors
# Summary of the method: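 Synthetic nanobody libraries on Saccharomyces cerevisiae BJ5465 were galactose-induced for 36–48 hours, stained 1 hour at 4 °C with 10% biotinylated, detergent-solubilized Sf9 membrane reagent and enriched on streptavidin microbeads. FACS then separated cells into low and high (top ~1%) gates by anti-HA (expression) and streptavidin (reagent binding) fluorescence. Genes were colony-PCR amplified, MiSeq 2 × 250 sequenced and CDR-length filtered. A clone's polyreactivity label is that of its gate of origin.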
row,Sequence,polyreactivity (PSR sort gate)
1,QVQLVESGGGLVQAGGSLRLSCAASGSIFDVYAMGWYRQAPGKERELVAAIRTRGGSTYYADSVKGRFTISRDNAKNTVYLQMNSLKPEDTAVYYCAAYPLVSWGRHGTKGDYWGQGTQVTVSS,low polyreactivity
2,QVQLVESGGGLVQAGGSLRLSCAASGSTFAVNAMGWYRQAPGKERELVAAISDSDGSTFYADSVKGRFTISRDNAKNTVYLQMNSLKPEDTAVYYCAATVYRVFRYSYLYYYWGQGTQVTVSS,low polyreactivity
3,QVQLVESGGGLVQAGGSLRLSCAASGFIFWKNAMGWYRQAPGKERELVAAISWSGGRTYYADSVKGRFTISRDNAKNTFYLQINSLKPEETAVYYCNAAGRYKPGAPYDYWGQGTQVTVSS,low polyreactivity
4,QVQLVESGGGLVQAGGSLRLSCAASGRTFLYNAMGWYRQAPGKERELVAAIRWSGGTTYYADSVKGRFTISRDNAKNTVYLQMNSLKPEDTAVYYCAARWGPYYGGVRYGYWGQGTQVTVSS,high polyreactivity
5,QVQLVDSGGGLVQAGGSLRLSCAASGGILKCYYMGRYRQATGKEMEFVSPITWSAGSTYYADSVKGRFTISRDNAKNTVYLQMNSLKPEDTAVHYCNVDWYPRGPHTVVFYDVSPYDYWGQGTQVTVSS,high polyreactivity
6,QVQLVESGGGLVQAGGSLRLSCAASGSISVYNAMGWYRQAPGKERELVAAISWSGGRTSYADSVKGRFTISRDNAKITVYLQMNSLKPEDTALYYCAADELTVLWDEDYWGQGTQVTVSS,low polyreactivity
7,QVQLVESGGGLVQAGGSLRLSCAASGRTFFPNAMGWYRQAPGKERELVAAISSGGSTYYADSVKGRFTISRDNAKNTVYLQMNSLKPEDTAVYYCAVYGFYSKYGYWGQGTQVTVSS,high polyreactivity
8,QVQLVESGGGLVQAGGSLRLSCAASGRIFSPYAMGWYRQAPGKERELVAAISFSAASTYYADSVKGRFTISRDNAKNTVYLQMNSLKPEDTAVYYCAADYWGQGTQVTVSS,high polyreactivity
9,QVQLVESGGGLVQAGGSLRLSCAASGSILGRYAMGWYRQAPGKERELVAVITSGGSTNYADSVKGRFTISRDNAKNTVYLQMNSLKPEDTAVYYCAVRPYELHRLADQPGGDDYWGQGTQVTVSS,low polyreactivity
10,QVQLVESGGGLVQAGGSLRLSCAASGGTFGSYAMGWYRQAPGKDRELVAAITGSGGRTYYADTVKGRFTISRDNAKNTVYLQMKSLKPEDTAVYYCNATRGIGTPYYYWGQGTQVTVSS,high polyreactivity
11,QVQLVESGGGLVQAGGSLRLSCPASGSIFPHYAMGWYRQAPGKERELVAAISRSGTSTYYADSVKGRFTISRDNAKNTVYLQMNSLKPEDTAVYYCNAYQVYTRTYGYWGQGTQVTVSS,high polyreactivity
12,QVQLVESGGGLVQAGGSLRLSCAAYGSIFEGNPMGWYRQAPGKERELVASISGDGSTNYADSVKGRFTISRDNAKNTVYLQMNSLKPEDTAVYYCNADTISEPGFHMDYWGQGTQVTVSS,low polyreactivity
13,QVQLVESGGVLVQAGGSLRLSCAASGSTFYFNTMGWYRQAPGKERELVAAITATGASTYYADSVKGRFTISRDIAKNTVYLQMNSLKPEDTAVYYCNVRLRIRSGYWGQGTQVTVSS,high polyreactivity
14,QVQLVESVRRLVQAGGSLRLSCAASGSIYYPYAMGWYRQAPGKEMELVAAITGHGGSTYYADSVKGRFTISRDNAKNTVYLQMNSLNPEDTAVYYCATGGYQPVLHRGYYRFNYWGQGTQVTVSS,low polyreactivity
15,QVQLVESGGGLVQAGGSLRLSCAASGRTFHGYAMGWYRQAPGKERELVARINWSDGRTYYADSVKGRFTISRDNAKNTVYLQMNSLKPVDTAVYYCAADKNVSYAPAWFYYWGQGTQVTVSS,low polyreactivity
16,QVQLVDSGGGLVQAGGSLRLSCAASGSIFDFYAMGWYRQAPGTERELVAAINSGGSTNYADSVKGRFTISRDNAKNTVYLQMNSLTPEDTAVYYCAARHPPYRGGYWGQGTQVTVSS,low polyreactivity
17,QVQLVESGGGLVQAGGSLRLSCAASGSTFYGNAMAWYRQAPGKEREFVAAISSGGRTYYADSVKGRFTISRDNAKNTVYLQMNSLKPEDTAVYYCAVRRSAFYARFGRNYWGQGTQVTVSS,low polyreactivity
18,QVQLVESGGGLVQAGGSLRLSCAASGSIFTYYVMGWYRQAPGKERELVATITGSSGSTYYADSVKGRFTISRDNAKNTVYLQMNSLKPEDTAVYYCNRTYYHYLYRGYGYWGQGTQVTVSS,low polyreactivity
19,QVQLVESGGGLVQAGGSLRLSCAASGRIFYYNAMGWYREAPGKERELVAVITRSGGRTFYADSVKGRFTISRDNAKNTVYLQMNSLKPEDTAVYYCAARYRYYPVTTRGYYWGQGTQVTVSS,high polyreactivity
20,QVQLVESGGGLVQAGGSLRLSCAASGRTSLGYAMGWYRQAPGKERELVAAISGGTTYYADSVKGRCTISRDNAKNPVYLQMNSLKPEDTAVYYCNAVYVWFSGAPRRYTKRYYWGQGTQVTVSS,high polyreactivity
21,QGQLVESGGGLVQAAGSLSLSCAASGRIYPYAMGWYRQAPGKERELVAAIPVNDGSTYYADSVTGRFTIARDNAMISVDLQMNSRKPEVSAVYYWKADYPIGWRNQYVQILYDYWGQGTQVTVSS,low polyreactivity

row,Sequence,polyreactivity (PSR sort gate)
1,QVQLVESGGGLVQAGGSLRLSCAASGRIFPYYAMGWYRQAPGKERELVAAISQSGGRTYYADSVKGRFTISRDNAKNTVYLQMNSLKPEDTAVYYCIAYTYSSGYDYWGQGTQVTVSS,high polyreactivity
2,QVQLVESGGGLVQAGGSLRLSCAASGSIITSYTMGWYRQAPGKERELVAAISRSGGSTYYADSVKGRFTISRDNAKNTVYLQMNSLKPEDTAVYYCAARQSKLRRETPNDYWGQGTQVTVSS,high polyreactivity
3,QVQLEESGGCLVQAGGSLRLRCAASGRIVALNAMGWYRQAPGKERELVATIRCRGGATYYADSVKGRFTISRDNAKNTVYLQMNSLKPEDNAVYYCDAFTGNRRTYDYWGQGTQVTVSS,high polyreactivity
4,QVQLVESAGGLVQAGGSLRLSCAASGITLSYNAMGWYRQAPGKERELVAAISARGGSTYYADSVKGRFTISRDPAKNTVYLQMYSLKPEDTAVYYCAAPRGWRQNKYDYWGQVTQVTVSS,high polyreactivity
5,QVQLVESGGGLVQAGGSLRLSCAASGRTFGRYLMGWYRQAPGKERLLVAAISFSGTGTYYADSVKGRFTISRDNAKYTVYLQMNSLKPEDTAVYYCAKGVTRVQYKHYYWGQGTQVTVSS,high polyreactivity
6,QVQLVESGGGLVQAGGSLRLSCAASGFIFRFNAMGWYRQAPGKERELVAGITWSGGSTYYADSVKGRFTISRDNAKNTVYLQMNSLKPEDTAVYYCAADNPYLGRKFDYWGQGTQVTVSS,high polyreactivity
7,QVQLVESGGGLVQAGGSLRLSCAPSGRTFNDYAMGWYRQAPGKESELVAAIDSDGDTNYADSVKGRFTISRDNAKNTVYLQMNSLKPEDTAVYYCNAVRLVVQEWYYYFTFDYWGQGTQVTVSS,low polyreactivity
8,QVQLVESGGGLVQAGGSLRLSCAASGSTFAYYSMGWYRQAPGKERELVAAISRTGGSTYYADSVKGRFTISRDNAKNTVYLQMNSLKPEDTAVYYCNARAPVGTFDYDYWGQGTQVTVSS,low polyreactivity
9,QVQLVESGGGLVQAGGSLRLSCAASGRTFYRSALVWYRQAPGKERELVAAISYNGGSTFYADSVKGRFTISRDNAKYTVYLQMNSLKPEDTAVYYCAAGPRGTGKYYWGQGTQVTVSS,high polyreactivity
10,QVQLVESGGGLVQAGGSLRLSCAASGIIFSRYVMGWSRQAPGKERELVAAISGSGGSTYYADSVKGRFTISRDNAKNTVYLQMNSLKPEDTAVYYCAKRRSWSNRIYGYWGQGTQVTVSS,high polyreactivity
11,QVQHVESGGGIVQAGGSLRLSCSASGSTFFYNTMGWYRHAPGKERELVAAISYRTGSTYYADSVKGRFTISRDNAKNSVYLQMNSLKTEDTAVYYCNARYPYRYGYWGQGTQVTVSS,high polyreactivity
12,QVQLVESGGGLVQEGGSLRLSCAASGSIFVNNGMGWYRQAPGKERELVAAIRLSTGSTYYADSVKGRFTISRDNAKNTVYLQMNSLKPEDTAVYFCNAVRYPRLMYYWGQGTQVTVSS,high polyreactivity
13,QVQLVESGVGLVQAGGSLRLSCAASGIITFYNAMGWYRQAPGKERELVAAITWSGGSTYYADSVKGRFTISRDNAKNTVYVQLNSLKPEDTAVYYCAADVVSVVYLPFVNGGDYWGLGTQVTVSS,low polyreactivity
14,HVQLVESGGGLVQAGGILRLSCAASGRIFPGYTMGWYRQGPGKERELVARISFSDGSTYYADSVNGRFTISRDNAKNTVYFQMNSRKPEDTAVYYCNAATYRNRHSNNGYWGQGTQVTVSS,low polyreactivity
15,QVQLVESGGGLVQAGASLRLSCAASGSISKSYAMGWYRQAPGKERELVAAISWRGGSTYADSVKGRFTISRDNAKNTVYLQMNSLKPEDTAVYYCAATNYGTFWGGQSERYDYWGQGTQVTVSS,low polyreactivity
16,QVQLVESGGGLVQAGGSLRLSCAASGRIFWANAMGWYRQAPGKERELVAAISKSGDSTYYADSVKGRFTISRDTAKNTVYLEMSWLKPEDTAVYSCAADEYASRFSFKYDYWGQGTQVTVSS,high polyreactivity
17,QVQLVESGGGLVQAGGSLRLSCAASGFTFSYYAMGWYRQAPGKERELVAAIRGGGSTYADSVKGRFTISRDNAKNTVYLQMHSLKPEDTAVYYCAARYSGSPYPTRRYDYWGQGTQVTVSS,high polyreactivity
18,QVQLVESGGGLLQAGGSLRLSCAASGHTLYRYARGWYRQAPGKERELVAAITSRGGSTFYADSVKGRFTISRDTAKNSVYLQMNRLQPEDTAVYYCNTARGTAPAHDYWGQGTQVTVSS,low polyreactivity
19,QVQLVESGGGLVQAGGSLRLSCAASGITFLQYAVGWYRPAPGKERELVAVISRGSRTYYADSVKGRFTISRDNAKNTVYLQMNSLKPEDTAVYYCAAVRGLAVGYDYWGQGTQVTVSS,high polyreactivity
20,QVQLVESGGGLVQAGGSLRLSCAASGFTFDFYAMGWYRQAPGKERELVAAISKNDGTTYYADSVKGRFTISRDNAKNTVYLQMYSLKPVDTAVYYCAAESGYPVYTYVSSGDYWGQGTQVTVSS,low polyreactivity
